Five molecules from publication PMC10940162 can be followed below.

Read-outs that look alike come from different tables or passages of the source.

Assay [1] addresses porcine brain tubulin (microtubules) (porcine).
The target is the same in assay [2]. The assay is described as follows: in vitro reconstitution with TIRF microscopy; microtubules nucleated from and anchored at γ-TuC (GCP3–GFP) held by anti-GFP nanobody; 25 µM tubulin, 80 mM KCl, MRB80, 30 °C; 5 nM SNAP–AF647–CAMSAP3, 5 nM SNAP–AF647–CAMSAP1 or 40 nM mCherry–CAMSAP2; scored over 10 min.
The target in assay [3] is γ-tubulin-containing complexes (complete and incomplete γ-TuRC) purified using GCP3–GFP–SII (human (endogenous in HEK293T)) (UniProt Q96CW5). Description: single-molecule colocalisation by TIRF microscopy; NPF pre-incubated with γ-TuC–GFP or GFP control ('Premix'), then held on the coverslip by biotinylated anti-GFP nanobody; without tubulin.
Sequence of UniProt Q96CW5 (Q96CW5 whole entry, looked up, one chain of several): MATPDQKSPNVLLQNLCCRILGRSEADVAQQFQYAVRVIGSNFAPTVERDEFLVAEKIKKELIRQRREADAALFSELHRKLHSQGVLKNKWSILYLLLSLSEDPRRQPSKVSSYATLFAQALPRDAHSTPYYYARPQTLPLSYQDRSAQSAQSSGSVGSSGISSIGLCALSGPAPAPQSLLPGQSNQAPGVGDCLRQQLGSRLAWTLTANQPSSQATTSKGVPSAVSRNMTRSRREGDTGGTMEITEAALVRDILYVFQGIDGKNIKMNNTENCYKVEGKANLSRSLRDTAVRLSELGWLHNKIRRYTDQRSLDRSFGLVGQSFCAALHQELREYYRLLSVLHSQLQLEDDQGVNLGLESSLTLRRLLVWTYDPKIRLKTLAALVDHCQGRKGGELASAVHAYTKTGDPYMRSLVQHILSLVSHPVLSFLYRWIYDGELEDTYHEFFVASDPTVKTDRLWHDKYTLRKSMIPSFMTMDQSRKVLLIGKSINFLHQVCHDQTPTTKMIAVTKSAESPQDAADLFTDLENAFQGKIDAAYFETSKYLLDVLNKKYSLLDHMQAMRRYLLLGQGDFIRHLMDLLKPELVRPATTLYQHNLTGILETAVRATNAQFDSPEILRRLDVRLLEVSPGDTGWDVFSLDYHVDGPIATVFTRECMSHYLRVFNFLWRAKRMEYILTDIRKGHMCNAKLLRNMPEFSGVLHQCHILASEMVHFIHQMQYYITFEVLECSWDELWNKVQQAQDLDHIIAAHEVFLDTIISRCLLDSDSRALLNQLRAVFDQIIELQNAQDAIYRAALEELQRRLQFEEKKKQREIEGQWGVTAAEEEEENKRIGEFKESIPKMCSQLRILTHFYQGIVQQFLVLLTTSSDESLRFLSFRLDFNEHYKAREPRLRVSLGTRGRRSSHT
For assay [4] the target is unchanged. Description: single-molecule colocalisation by TIRF microscopy; γ-TuC–GFP held on the coverslip by biotinylated anti-GFP nanobody; with free tubulin (17.5 µM, 50 mM KCl, 30 °C); the sentence does not tell whether the NPF was premixed.
Assay [5] has the same target.
Assay [6] has the same target. The assay is described as follows: single-molecule colocalisation by TIRF microscopy; NPF pre-incubated with γ-TuC–GFP in solution ('Premix'), then held on the coverslip by biotinylated anti-GFP nanobody; with 17.5 µM tubulin, 50 mM KCl, MRB80, 30 °C.
The target of assay [7] is porcine brain tubulin (microtubules) (porcine). Description: in vitro reconstitution with TIRF microscopy; microtubules nucleated from and anchored at γ-TuC (GCP3–GFP) held by anti-GFP nanobody; 25 µM tubulin, 80 mM KCl, MRB80, 30 °C; 5 nM SNAP–AF647–CAMSAP3, 5 nM SNAP–AF647–CAMSAP1 or 40 nM mCherry–CAMSAP2; scored over 10 min. The source holds these as a separate data set.

Assay [8] has as its target γ-tubulin-containing complexes (complete and incomplete γ-TuRC) purified using GCP3–GFP–SII (human (endogenous in HEK293T)) (UniProt Q96CW5). Description: single-molecule colocalisation by TIRF microscopy; NPF pre-incubated with γ-TuC–GFP or GFP control ('Premix'), then held on the coverslip by biotinylated anti-GFP nanobody; without tubulin. The source holds these as a separate data set.

Assay [9] has the same target. The assay is described as follows: single-molecule colocalisation by TIRF microscopy; γ-TuC–GFP held on the coverslip by biotinylated anti-GFP nanobody; with free tubulin (17.5 µM, 50 mM KCl, 30 °C); the sentence does not tell whether the NPF was premixed. The source holds these as a separate data set.

In the case of “SNAP–AF647–CAMSAP1 (from UniProt Q5T5Y3 1-1602) (natural protein)”, in assay [1], the γ-TuC displacement frequency (microtubules released among γ-TuC-anchored minus ends colocalizing with the CAMSAP) amounted to 5%. Further, the percent of γ-TuC-nucleated microtubules with CAMSAP at the minus end in assay [2] is 25%.

For the molecule “chTOG–mCherry (from UniProt Q14008 1-2032) (natural protein)”, the percent of chTOG-positive puncta colocalizing with γ-TuC stood at 28% in assay [3] and 6% in assay [4].

Molecule “mCherry–CDK5RAP2 (from UniProt Q96SN8 1-1893) (natural protein)” returned a microtubule nucleation efficiency of γ-TuC (percent of γ-TuCs nucleating within 10 min), mCherry–CDK5RAP2 pre-incubated with γ-TuCs in assay [5] of 35%. Further, the percent of CDK5RAP2-positive puncta colocalizing with γ-TuCs in [3] worked out at 41%; in assay [4], 13%. Also, the percent of γ-TuCs colocalizing with CDK5RAP2 in assay [3] is 30%; in [6] it was 38%.

B1: mCherry–CAMSAP2 (natural protein)
chain: MGDAADPREMRKTFIVPAIKPFDHYDFSRAKIACNLAWLVAKAFGTENVPEELQEPFYTDQYDQEHIKPPVVNLLLSAELYCRAGSLILKSDAAKPLLGHDAVIQALAQKGLYVTDQEKLVTERDLHKKPIQMSAHLAMIDTLMMAYTVEMVSIEKVIACAQQYSAFFQATDLPYDIEDAVMYWINKVNEHLKDIMEQEQKLKEHHTVEAPGGQKSPSKWFWKLVPARYRKEQTLLKQLPCIPLVENLLKDGTDGCALAALIHFYCPDVVRLEDICLKETMSLADSLYNLQLIQEFCQEYLNQCCHFTLEDMLYAASSIKSNYLVFMAELFWWFEVVKPSFVQPRVVRPQGAEPVKDMPSIPVLNAAKRNVLDSSSDFPSSGEGATFTQSHHHLPSRYSRPQAHSSASGGIRRSSSMSYVDGFIGTWPKEKRSSVHGVSFDISFDKEDSVQRSTPNRGITRSISNEGLTLNNSHVSKHIRKNLSFKPINGEEEAESIEEELNIDSHSDLKSCVPLNTNELNSNENIHYKLPNGALQNRILLDEFGNQIETPSIEEALQIIHDTEKSPHTPQPDQIANGFFLHSQEMSILNSNIKLNQSSPDNVTDTKGALSPITDNTEVDTGIHVPSEDIPETMDEDSSLRDYTVSLDSDMDDASKFLQDYDIRTGNTREALSPCPSTVSTKSQPGSSASSSSGVKMTSFAEQKFRKLNHTDGKSSGSSSQKTTPEGSELNIPHVVAWAQIPEETGLPQGRDTTQLLASEMVHLRMKLEEKRRAIEAQKKKMEAAFTKQRQKMGRTAFLTVVKKKGDGISPLREEAAGAEDEKVYTDRAKEKESQKTDGQRSKSLADIKESMENPQAKWLKSPTTPIDPEKQWNLASPSEETLNEGEILEYTKSIEKLNSSLHFLQQEMQRLSLQQEMLMQMREQQSWVISPPQPSPQKQIRDFKPSKQAGLSSAIAPFSSDSPRPTHPSPQSSNRKSASFSVKSQRTPRPNELKITPLNRTLTPPRSVDSLPRLRRFSPSQVPIQTRSFVCFGDDGEPQLKESKPKEEVKKEELESKGTLEQRGHNPEEKEIKPFESTVSEVLSLPVTETVCLTPNEDQLNQPTEPPPKPVFPPTAPKNVNLIEVSLSDLKPPEKADVPVEKYDGESDKEQFDDDQKVCCGFFFKDDQKAENDMAMKRAALLEKRLRREKETQLRKQQLEAEMEHKKEETRRKTEEERQKKEDERARREFIRQEYMRRKQLKLMEDMDTVIKPRPQVVKQKKQRPKSIHRDHIESPKTPIKGPPVSSLSLASLNTGDNESVHSGKRTPRSESVEGFLSPSRCGSRNGEKDWENASTTSSVASGTEYTGPKLYKEPSAKSNKHIIQNALAHCCLAGKVNEGQKKKILEEMEKSDANNFLILFRDSGCQFRSLYTYCPETEEINKLTGIGPKSITKKMIEGLYKYNSDRKQFSHIPAKTLSASVDAITIHSHLWQTKRPVTPKKLLPTKA
In turn, B1 displayed a percent of γ-TuC-nucleated microtubules with CAMSAP at the minus end in assay [7] of 15%. Moreover, in [1], the γ-TuC displacement frequency (microtubules released among γ-TuC-anchored minus ends colocalizing with the CAMSAP) was determined as 90%.

B2: mCherry–CLASP2 (natural protein)
chain: MAMGDDKSFDDEESVDGNRPSSAASAFKVPAPKTSGNPANSARKPGSAGGPKVGGASKEGGAGAVDEDDFIKAFTDVPSIQIYSSRELEETLNKIREILSDDKHDWDQRANALKKIRSLLVAGAAQYDCFFQHLRLLDGALKLSAKDLRSQVVREACITVAHLSTVLGNKFDHGAEAIVPTLFNLVPNSAKVMATSGCAAIRFIIRHTHVPRLIPLITSNCTSKSVPVRRRSFEFLDLLLQEWQTHSLERHAAVLVETIKKGIHDADAEARVEARKTYMGLRNHFPGEAETLYNSLEPSYQKSLQTYLKSSGSVASLPQSDRSSSSSQESLNRPFSSKWSTANPSTVAGRVSAGSSKASSLPGSLQRSRSDIDVNAAAGAKAHHAAGQSVRSGRLGAGALNAGSYASLEDTSDKLDGTASEDGRVRAKLSAPLAGMGNAKADSRGRSRTKMVSQSQPGSRSGSPGRVLTTTALSTVSSGVQRVLVNSASAQKRSKIPRSQGCSREASPSRLSVARSSRIPRPSVSQGCSREASRESSRDTSPVRSFQPLASRHHSRSTGALYAPEVYGASGPGYGISQSSRLSSSVSAMRVLNTGSDVEEAVADALKKPARRRYESYGMHSDDDANSDASSACSERSYSSRNGSIPTYMRQTEDVAEVLNRCASSNWSERKEGLLGLQNLLKNQRTLSRVELKRLCEIFTRMFADPHGKRVFSMFLETLVDFIQVHKDDLQDWLFVLLTQLLKKMGADLLGSVQAKVQKALDVTRESFPNDLQFNILMRFTVDQTQTPSLKVKVAILKYIETLAKQMDPGDFINSSETRLAVSRVITWTTEPKSSDVRKAAQSVLISLFELNTPEFTMLLGALPKTFQDGATKLLHNHLRNTGNGTQSSMGSPLTRPTPRSPANWSSPLTSPTNTSQNTLSPSAFDYDTENMNSEDIYSSLRGVTEAIQNFSFRSQEDMNEPLKRDSKKDDGDSMCGGPGMSDPRAGGDATDSSQTALDNKASLLHSMPTHSSPRSRDYNPYNYSDSISPFNKSALKEAMFDDDADQFPDDLSLDHSDLVAELLKELSNHNERVEERKIALYELMKLTQEESFSVWDEHFKTILLLLLETLGDKEPTIRALALKVLREILRHQPARFKNYAELTVMKTLEAHKDPHKEVVRSAEEAASVLATSISPEQCIKVLCPIIQTADYPINLAAIKMQTKVIERVSKETLNLLLPEIMPGLIQGYDNSESSVRKACVFCLVAVHAVIGDELKPHLSQLTGSKMKLLNLYIKRAQTGSGGADPTTDVSGQS
Turning to B2, the percent colocalization with γ-TuC in assay [8] and in [9] was 72% throughout.
